Patent publication US20220025071A1 (BIOMOLECULAR, published 2022)

T1: CD19 (UniProt P15391 20-291)
T1 sequence (looked up): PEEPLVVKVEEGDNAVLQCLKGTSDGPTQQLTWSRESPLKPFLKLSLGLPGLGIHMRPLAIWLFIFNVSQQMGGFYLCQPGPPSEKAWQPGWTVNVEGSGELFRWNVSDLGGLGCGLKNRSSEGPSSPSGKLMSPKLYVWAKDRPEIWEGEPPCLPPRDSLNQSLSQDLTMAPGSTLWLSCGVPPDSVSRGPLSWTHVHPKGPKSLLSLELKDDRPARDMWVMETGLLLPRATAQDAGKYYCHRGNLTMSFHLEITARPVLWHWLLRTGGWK

T2: Recombinant human Fc gamma receptor IIb/c, CD32b/c (human, UniProt P31994 46-217)
T2 construct: also called FcRγIIb
T2 sequence (looked up): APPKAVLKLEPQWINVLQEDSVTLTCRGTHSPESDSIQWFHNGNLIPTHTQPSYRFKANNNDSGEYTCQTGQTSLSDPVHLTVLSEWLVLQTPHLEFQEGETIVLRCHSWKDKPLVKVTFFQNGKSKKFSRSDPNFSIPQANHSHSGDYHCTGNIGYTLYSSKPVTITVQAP

B1: B19c66 (one-arm antibody) (antibody, human IgG1, kappa)
light: not shown
heavy: not shown
chain: CPPCPAPELLGGPSVFLFPPKPKDTLMISRTPEVTCVVVDVSHEDPEVKFNWYVDGVEVHNAKTKPREEQYNSTYRVVSVLTVLHQDWLNGKEYKCKVSNKALPAPIEKTISKAKGQPREPQVYVYPPSRDELTKNQVSLTCLVKGFYPSDIAVEWESNGQPENNYKTTPPVLDSDGSFALVSKLTVDKSRWQQGNVFSCSVMHEALHNHYTQKSLSLSPGK
B2: ACE2Fc-740HA201RF/O24A-DHS (bispecific antibody)
chain: not shown
light: not shown
heavy: QAYLQQSGAELVRPGASVKMSCKASGYTFTSYSMHWVKQTPRQGLEWIGAIYPGNDDTSYNQKFKGKATLTVDRSSSTAYMQLSSLTSEDSAVYFCTRDYSNYPFDYWGQGTTLTVSSASTKGPSVFPLAPSSKSTSGGTAALGCLVKDYFPEPVTVSWNSGALTSGVHTFPAVLQSSGLYSLSSVVTVPSSSLGTQTYICNVNHKPSNTKVDKKVEPKSCDKTHTCPPCPAPELLGGPSVFLFPPKPKDTLMISRTPEVTCVVVDVSHEDPEVKFNWYVDGVEVHNAKTKPREEQYNSTYRVVSVLTVDHHDWLNGKEYKCKVSNKALPAPIEKTISKAKGQPREPQVYTLPPCRDELTKNQVSLWCLVKGFYPSDIAVEWESNGQPENNYKTTPPVLDSDGSFFLYSKLTVDKSRWQQGNVFSCSVMHEALHSHYTQKSLSLSPG
notes: also called 15-23

How the values were obtained:
[1] = target: T1, CD19
[2] = target: Recombinant human Fc gamma receptor IIIa, CD16a 158V (human, UniProt P08637 17-208)
Chain of Recombinant human Fc gamma receptor IIIa, CD16a 158V (P08637 17-208 F176V limits assumed): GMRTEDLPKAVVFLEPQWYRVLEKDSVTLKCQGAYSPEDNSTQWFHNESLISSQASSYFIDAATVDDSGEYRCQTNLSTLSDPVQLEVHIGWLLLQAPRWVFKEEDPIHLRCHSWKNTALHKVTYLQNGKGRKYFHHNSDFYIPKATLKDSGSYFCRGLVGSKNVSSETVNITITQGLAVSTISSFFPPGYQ

[3] = target: T2, Recombinant human Fc gamma receptor …; experiment: SPR (Carterra LSA)

| Binder | Kd [1] [nM] | Kd [2] [nM] | binding result [3] |
| --- | --- | --- | --- |
| B1 | 21.8 | 234 | – |
| B2 | – | – | no binding (tested: up to 2000 nM) |
